Results: publication PMC10786891, “Massively parallel profiling of RNA-targeting CRISPR-Cas13d”
Numbering of substitutions follows the chain as printed. Names may count otherwise.

B1: target 2 MT 5'PFS GGG 3'PFS UCU (mixed)
RNA 1: CACCCGUGCAAAAUUGCAGGGGUCUAAAACCUUCUCCAAAUUGUUUCAUCCU
RNA 2: GGGAAUGGAUCCACAUCUACGAAUUCGGGAGGAUGAAACAAUUUGGAGAAGUCUAGAUCGGAAGAGCACACGU
B2: target 2 MT 5'PFS ACU 3'PFS UUG (mixed)
RNA 1: B1 RNA 1
RNA 2: B1 RNA 2 with G27A, G28C, G29U, C53U, U54G
B3: target 2 MT 5'PFS CUU 3'PFS CAU (mixed)
RNA 1: B1 RNA 1
RNA 2: B1 RNA 2 with G27C, G28U, G29U, U52C, C53A
B4: target 2 MT 5'PFS GAA 3'PFS CAU (mixed)
RNA 1: B1 RNA 1
RNA 2: B1 RNA 2 with G28A, G29A, U52C, C53A
B5: target 2 MT 5'PFS UUC 3'PFS CAA (mixed)
RNA 1: B1 RNA 1
RNA 2: B1 RNA 2 with G27U, G28U, G29C, U52C, C53A, U54A
B6: target 2 MT 5'PFS UAG 3'PFS CCC (mixed)
RNA 1: B1 RNA 1
RNA 2: B1 RNA 2 with G27U, G28A, U52C, U54C
B7: target 2 MT 5'PFS CAU 3'PFS AUU (mixed)
RNA 1: B1 RNA 1
RNA 2: B1 RNA 2 with G27C, G28A, G29U, U52A, C53U
B8: target 2 MT 5'PFS GUU 3'PFS CCA (mixed)
RNA 1: B1 RNA 1
RNA 2: B1 RNA 2 with G28U, G29U, U52C, U54A
B9: target 2 MT 5'PFS CAU 3'PFS AUA (mixed)
RNA 1: B1 RNA 1
RNA 2: B1 RNA 2 with G27C, G28A, G29U, U52A, C53U, U54A
B10: target 2 MT 5'PFS GAA 3'PFS CAC (mixed)
RNA 1: B1 RNA 1
RNA 2: B1 RNA 2 with G28A, G29A, U52C, C53A, U54C
B11: target 2 MT 5'PFS GAA 3'PFS CAA (mixed)
RNA 1: B1 RNA 1
RNA 2: B1 RNA 2 with G28A, G29A, U52C, C53A, U54A
B12: target 2 MT 5'PFS AUU 3'PFS UCA (mixed)
RNA 1: B1 RNA 1
RNA 2: B1 RNA 2 with G27A, G28U, G29U, U54A
B13: target 2 MT 5'PFS GCG 3'PFS CGA (mixed)
RNA 1: B1 RNA 1
RNA 2: B1 RNA 2 with G28C, U52C, C53G, U54A
B14: target 2 MT 5'PFS UCA 3'PFS CUU (mixed)
RNA 1: B1 RNA 1
RNA 2: B1 RNA 2 with G27U, G28C, G29A, U52C, C53U
B15: target 2 MT 5'PFS UGC 3'PFS AGC (mixed)
RNA 1: B1 RNA 1
RNA 2: B1 RNA 2 with G27U, G29C, U52A, C53G, U54C
B16: target 2 MT 5'PFS GGG 3'PFS UCA (mixed)
RNA 1: B1 RNA 1
RNA 2: B1 RNA 2 with U54A
B17: target 2 MT 5'PFS ACU 3'PFS UUC (mixed)
RNA 1: B1 RNA 1
RNA 2: B1 RNA 2 with G27A, G28C, G29U, C53U, U54C
B18: target 2 MT 5'PFS GCG 3'PFS CGU (mixed)
RNA 1: B1 RNA 1
RNA 2: B1 RNA 2 with G28C, U52C, C53G
B19: target 2 MT 5'PFS CUU 3'PFS CAG (mixed)
RNA 1: B1 RNA 1
RNA 2: B1 RNA 2 with G27C, G28U, G29U, U52C, C53A, U54G
B20: target 2 MT 5'PFS CUU 3'PFS CAA (mixed)
RNA 1: B1 RNA 1
RNA 2: B1 RNA 2 with G27C, G28U, G29U, U52C, C53A, U54A
B21: target 2 MT 5'PFS CAU 3'PFS AUG (mixed)
RNA 1: B1 RNA 1
RNA 2: B1 RNA 2 with G27C, G28A, G29U, U52A, C53U, U54G
B22: target 2 MT 5'PFS GGG 3'PFS UCG (mixed)
RNA 1: B1 RNA 1
RNA 2: B1 RNA 2 with U54G
B23: target 2 MT 5'PFS CAG 3'PFS ACG (mixed)
RNA 1: B1 RNA 1
RNA 2: B1 RNA 2 with G27C, G28A, U52A, U54G
B24: target 2 MT 5'PFS UGC 3'PFS AGA (mixed)
RNA 1: B1 RNA 1
RNA 2: B1 RNA 2 with G27U, G29C, U52A, C53G, U54A
B25: target 2 MT 5'PFS GAA 3'PFS CAG (mixed)
RNA 1: B1 RNA 1
RNA 2: B1 RNA 2 with G28A, G29A, U52C, C53A, U54G
B26: target 2 MT 5'PFS CUU 3'PFS CAC (mixed)
RNA 1: B1 RNA 1
RNA 2: B1 RNA 2 with G27C, G28U, G29U, U52C, C53A, U54C
B27: target 2 MT 5'PFS ACU 3'PFS UUU (mixed)
RNA 1: B1 RNA 1
RNA 2: B1 RNA 2 with G27A, G28C, G29U, C53U
B28: target 2 MT 5'PFS CUC 3'PFS UGU (mixed)
RNA 1: B1 RNA 1
RNA 2: B1 RNA 2 with G27C, G28U, G29C, C53G
B29: target 2 MT 5'PFS ACU 3'PFS UUA (mixed)
RNA 1: B1 RNA 1
RNA 2: B1 RNA 2 with G27A, G28C, G29U, C53U, U54A
B30: target 2 MT 5'PFS CAG 3'PFS ACA (mixed)
RNA 1: B1 RNA 1
RNA 2: B1 RNA 2 with G27C, G28A, U52A, U54A
B31: target 2 MT 5'PFS CAU 3'PFS AUC (mixed)
RNA 1: B1 RNA 1
RNA 2: B1 RNA 2 with G27C, G28A, G29U, U52A, C53U, U54C
B32: target 2 MT 5'PFS GGG 3'PFS UCC (mixed)
RNA 1: B1 RNA 1
RNA 2: B1 RNA 2 with U54C
B33: target 2 MT 5'PFS AAU 3'PFS ACA (mixed)
RNA 1: B1 RNA 1
RNA 2: B1 RNA 2 with G27A, G28A, G29U, U52A, U54A
B34: target 2 MT 5'PFS UGC 3'PFS AGG (mixed)
RNA 1: B1 RNA 1
RNA 2: B1 RNA 2 with G27U, G29C, U52A, C53G, U54G
B35: target 2 MT 5'PFS AAU 3'PFS CAU (mixed)
RNA 1: B1 RNA 1
RNA 2: B1 RNA 2 with G27A, G28A, G29U, U52C, C53A
B36: target 1 A1G,C6G (mixed)
RNA 1: CACCCGUGCAAAAAUGCAGGGGUCUAAAACUGAGCGGAUAACCUCUCUAUGG
RNA 2: GGGAAUGGAUCCACAUCUACGAAUUCGUACCAUAGAGAGGUUAUCGGCUCGCCGAGAUCGGAAGAGCACACGU
B37: target 1 insG 3' of 10,insC 3' of 8 (mixed)
RNA 1: B36 RNA 1
RNA 2: GGGAAUGGAUCCACAUCUACGAAUUCGUACCAUAGAGAGGUUGAUCCCGCUCACCGAGAUCGGAAGAGCACACGU
B38: target 1 U10C,G12C (mixed)
RNA 1: B36 RNA 1
RNA 2: B36 RNA 2 with G40C, U42C, G46C, G51A

Target: T1, EsCas13d, nuclease-dead (Eubacterium siraeum, UniProt B0MS50, R295A;H300A;R849A;H854A)
T1 sequence: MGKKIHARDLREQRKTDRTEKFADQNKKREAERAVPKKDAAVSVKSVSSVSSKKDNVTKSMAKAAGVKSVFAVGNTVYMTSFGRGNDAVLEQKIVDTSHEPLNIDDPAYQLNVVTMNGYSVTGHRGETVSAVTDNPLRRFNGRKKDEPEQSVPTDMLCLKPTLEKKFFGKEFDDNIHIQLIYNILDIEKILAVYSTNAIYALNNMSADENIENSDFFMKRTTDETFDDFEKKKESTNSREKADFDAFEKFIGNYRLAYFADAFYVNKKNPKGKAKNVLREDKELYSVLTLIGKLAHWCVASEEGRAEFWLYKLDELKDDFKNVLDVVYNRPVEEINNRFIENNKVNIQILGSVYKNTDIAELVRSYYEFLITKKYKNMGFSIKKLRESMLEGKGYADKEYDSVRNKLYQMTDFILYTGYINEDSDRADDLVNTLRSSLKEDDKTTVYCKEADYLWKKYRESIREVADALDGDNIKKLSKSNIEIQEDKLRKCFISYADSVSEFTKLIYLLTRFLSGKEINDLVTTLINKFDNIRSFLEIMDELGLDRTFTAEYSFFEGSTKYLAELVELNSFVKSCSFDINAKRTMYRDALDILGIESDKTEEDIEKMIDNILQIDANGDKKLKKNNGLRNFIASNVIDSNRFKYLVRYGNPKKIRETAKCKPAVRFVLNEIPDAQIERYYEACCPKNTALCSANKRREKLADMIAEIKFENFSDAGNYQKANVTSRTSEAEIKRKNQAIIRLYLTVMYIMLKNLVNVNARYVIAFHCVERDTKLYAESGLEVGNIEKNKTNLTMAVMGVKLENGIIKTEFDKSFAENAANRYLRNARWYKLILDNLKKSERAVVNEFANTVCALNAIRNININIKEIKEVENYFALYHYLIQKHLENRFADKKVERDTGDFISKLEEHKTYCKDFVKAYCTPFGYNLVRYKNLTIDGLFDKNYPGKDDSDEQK
Assay: crRNA (strand 1, pre-loaded); Mg2+; 40 mM Tris-HCl pH 7.5, 150 mM NaCl, 6 mM MgCl2, 1 mM DTT, 0.1% Tween-20, 0.2 mg/ml BSA; 25 C; 10 min per concentration, then washed
Conditions: tags: His6-TwinStrep-SUMO cleaved; N-terminal SNAP kept (SNAP-Surface 488); label: 3' end held by stalled T7 RNA polymerase

Binder | Kd
B1 | 12.1 ± 0.8 nM
B2 | 7 ± 1 nM
B3 | 4.1 ± 0.6 nM
B4 | 8.6 ± 1.7 nM
B5 | 30 ± 6 nM
B6 | 24 ± 9 nM
B7 | 4.1 ± 0.6 nM
B8 | ~90 nM
B9 | 3.31 ± 0.27 nM
B10 | 7 ± 1.5 nM
B11 | 4.9 ± 0.7 nM
B12 | 7 ± 0.8 nM
B13 | 30 ± 12 nM
B14 | 5 ± 0.9 nM
B15 | 19.7 ± 1.9 nM
B16 | 11.3 ± 1.5 nM
B17 | 7.1 ± 2 nM
B18 | 14.4 ± 3 nM
B19 | 3.75 ± 0.3 nM

Binder | Kd
B20 | 2.9 ± 0.4 nM
B21 | 4 ± 0.7 nM
B22 | 11.5 ± 0.8 nM
B23 | 5.8 ± 2.8 nM
B24 | 26 ± 9 nM
B25 | 6.6 ± 0.6 nM
B26 | 3.41 ± 0.28 nM
B27 | 6.4 ± 0.8 nM
B28 | 2.23 ± 0.19 nM
B29 | 9.4 ± 2.2 nM
B30 | 5.3 ± 2.1 nM
B31 | 3.3 ± 0.5 nM
B32 | 52 ± 14 nM
B33 | 7.5 ± 1.3 nM
B34 | ~60 nM
B35 | 3 ± 0.6 nM
B36 | 7.3 ± 0.4 nM
B37 | 27.8 ± 1.9 nM
B38 | 71 ± 27 nM
